The text below walks through data of article PMC3494861 (The Journal of Cell Biology, 2012).

Test [1] addresses Tob55 (endogenous; long, intermediate and short isoforms) (N. crassa). The test is described as follows: cross-linking.
For test [2], the target named is His9-Tob37 (Tob37 with a 9x His tag, N. crassa strain Tob37HT) (N. crassa) (UniProt Q7SFC4). The test is described as follows: isotope dilution mass spectrometry.
The target in test [3] is His9-Tob38 (Tob38 with a 9x His tag, N. crassa strain Tob38HT) (N. crassa) (UniProt V5IPB4). The test is described as follows: isotope dilution mass spectrometry.
Test [4] deals with His9-Tob55, short isoform (N. crassa strain Tob55 short HT) (N. crassa). The test is described as follows: cryo-EM structure.
Test [5] concerns the target T1, His9-Tob38 (Tob38 with a 9x His tag, N. crassa strain Tob38HT) (N. crassa, UniProt V5IPB4 1-340).
T1 sequence (looked up): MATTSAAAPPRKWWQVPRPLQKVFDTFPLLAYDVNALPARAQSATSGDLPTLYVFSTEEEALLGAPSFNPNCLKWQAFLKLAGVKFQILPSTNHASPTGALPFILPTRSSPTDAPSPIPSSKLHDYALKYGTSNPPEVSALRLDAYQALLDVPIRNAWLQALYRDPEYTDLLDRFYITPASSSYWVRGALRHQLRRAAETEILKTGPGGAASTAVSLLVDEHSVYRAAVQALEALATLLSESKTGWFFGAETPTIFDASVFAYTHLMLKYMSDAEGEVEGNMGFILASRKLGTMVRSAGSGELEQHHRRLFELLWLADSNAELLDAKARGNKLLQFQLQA
Put plainly: native gel or EMSA.

In test [6] the target is T2, His9-Tob37 (Tob37 with a 9x His tag, N. crassa strain Tob37HT) (N. crassa, UniProt Q7SFC4 1-442).
T2 sequence (looked up): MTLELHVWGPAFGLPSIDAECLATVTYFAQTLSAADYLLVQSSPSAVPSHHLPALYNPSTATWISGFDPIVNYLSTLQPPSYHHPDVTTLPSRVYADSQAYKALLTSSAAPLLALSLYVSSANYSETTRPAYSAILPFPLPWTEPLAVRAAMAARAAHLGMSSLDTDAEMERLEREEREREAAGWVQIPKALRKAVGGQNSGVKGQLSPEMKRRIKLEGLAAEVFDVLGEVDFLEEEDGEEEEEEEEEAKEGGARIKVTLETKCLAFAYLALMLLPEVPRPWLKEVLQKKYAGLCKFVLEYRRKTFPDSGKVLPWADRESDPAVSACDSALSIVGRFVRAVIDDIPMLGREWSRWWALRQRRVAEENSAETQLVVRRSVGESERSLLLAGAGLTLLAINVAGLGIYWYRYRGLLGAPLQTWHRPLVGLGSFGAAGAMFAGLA
Put plainly: native gel or EMSA. On the technique in general: A gel shift assay detects complexes by their altered migration in electrophoresis.

The target in test [7] is His9-Tob55, short isoform (N. crassa strain Tob55 short HT) (N. crassa). Put plainly: isotope dilution mass spectrometry.
The target of test [8] is T1, His9-Tob38 (Tob38 with a 9x His tag, N. …). Put plainly: isotope dilution mass spectrometry.
For test [9], the target named is T2, His9-Tob37 (Tob37 with a 9x His tag, N. …). Put plainly: isotope dilution mass spectrometry.

With “Tob55 (endogenous; long, intermediate and short isoforms) (natural protein)”, the stoichiometry N stood at 2 in [1], 1 in test [2] and 1 in test [3].

In the case of “His9-Tob55, short isoform (N. crassa strain Tob55 short HT) (natural protein)”, the stoichiometry N in test [4] turned out to be 2.

B1: Mdm10 (endogenous) (natural protein, N. crassa, UniProt Q7SBE0 1-480, looked up)
chain: MREFMNYITNAFYGATGWNEDNKYNELNATSRELIDFPLPRGLRLTLSSLATPHFATSYQLGSVGVVDGSISYLHSSIPLTHIAAQSDKIPLPALLRCYRRLHDLRSPGQQHYILDADPLSGLPPPPQSARALLGAASDAAVAGGALDGGNTDQDLGIYTHSLLYGRLYLPKSLLEGMIIKRFTQALQVQVRAVSEQSLRNGGTILGLVQYDKGKYGLEGLYSTDGGLLGFRGLYNFGGDASSSTCDPWTPTPGENNNNNNNNNNNNNGNAQAGEKERIYGRFSVGGELYYGTLNKSGGMSLGARFATLPAHRGTPLTATLTINPLMGNINATYALLAREYCSLATRVDFNVYSYESEWAVGMELWSNRRPAGFLLGASPSNDFEPEPHPPRKKERSFQAKMEWRLDDPEPEPEPQPTPKTRKNDEYKGVLKARLDNNLRMGLLWEGRAKSLIFSIGTGIDLHKLGEPFRSLGLEVQYSS
As for B1, the “stoichiometry N” value in test [5] and in test [6] was 1 throughout.

B2: Tob37 (endogenous) (natural protein, N. crassa, UniProt Q7SFC4 1-442, looked up)
chain: MTLELHVWGPAFGLPSIDAECLATVTYFAQTLSAADYLLVQSSPSAVPSHHLPALYNPSTATWISGFDPIVNYLSTLQPPSYHHPDVTTLPSRVYADSQAYKALLTSSAAPLLALSLYVSSANYSETTRPAYSAILPFPLPWTEPLAVRAAMAARAAHLGMSSLDTDAEMERLEREEREREAAGWVQIPKALRKAVGGQNSGVKGQLSPEMKRRIKLEGLAAEVFDVLGEVDFLEEEDGEEEEEEEEEAKEGGARIKVTLETKCLAFAYLALMLLPEVPRPWLKEVLQKKYAGLCKFVLEYRRKTFPDSGKVLPWADRESDPAVSACDSALSIVGRFVRAVIDDIPMLGREWSRWWALRQRRVAEENSAETQLVVRRSVGESERSLLLAGAGLTLLAINVAGLGIYWYRYRGLLGAPLQTWHRPLVGLGSFGAAGAMFAGLA
Take B2: the stoichiometry N in test [7] and in test [8] was 1 each time.

B3: Tob38 (endogenous) (natural protein, N. crassa, UniProt V5IPB4 1-340, looked up)
chain: MATTSAAAPPRKWWQVPRPLQKVFDTFPLLAYDVNALPARAQSATSGDLPTLYVFSTEEEALLGAPSFNPNCLKWQAFLKLAGVKFQILPSTNHASPTGALPFILPTRSSPTDAPSPIPSSKLHDYALKYGTSNPPEVSALRLDAYQALLDVPIRNAWLQALYRDPEYTDLLDRFYITPASSSYWVRGALRHQLRRAAETEILKTGPGGAASTAVSLLVDEHSVYRAAVQALEALATLLSESKTGWFFGAETPTIFDASVFAYTHLMLKYMSDAEGEVEGNMGFILASRKLGTMVRSAGSGELEQHHRRLFELLWLADSNAELLDAKARGNKLLQFQLQA
With B3, the stoichiometry N in test [7] and in [9] was 1 each time.

By stoichiometry N is commonly meant a count of units in the complex or per binding partner.
